The record followed here is patent US20250122300A1 (INSERM INSTITUT NATIONAL DE LA SANT ET DE LA RECHERCHE M …, published 2025).

Changes are numbered by the printed parent chain.

Test [1] addresses macaque CD45RC (cynomolgus macaque). Briefly: flow cytometry, cynomolgus macaque PBMC, CD3- cells. In general terms: A flow cytometer gives signals particle by particle.
For test [2] the target is unchanged. Briefly: flow cytometry, cynomolgus macaque PBMC, CD3+ cells (p-1488).
Test [3] deals with T1, human CD45RC (human, UniProt P08575 26-1306).
T1 construct: In flow cytometry the protein is on human PBMC (which may also carry other CD45 isoforms with the C determinant); in the SPR assay it is in solubilised membranes of CD45RC-high PBMC or of CHO cells transfected with CD45RC; also called hCD45RC
T1 sequence: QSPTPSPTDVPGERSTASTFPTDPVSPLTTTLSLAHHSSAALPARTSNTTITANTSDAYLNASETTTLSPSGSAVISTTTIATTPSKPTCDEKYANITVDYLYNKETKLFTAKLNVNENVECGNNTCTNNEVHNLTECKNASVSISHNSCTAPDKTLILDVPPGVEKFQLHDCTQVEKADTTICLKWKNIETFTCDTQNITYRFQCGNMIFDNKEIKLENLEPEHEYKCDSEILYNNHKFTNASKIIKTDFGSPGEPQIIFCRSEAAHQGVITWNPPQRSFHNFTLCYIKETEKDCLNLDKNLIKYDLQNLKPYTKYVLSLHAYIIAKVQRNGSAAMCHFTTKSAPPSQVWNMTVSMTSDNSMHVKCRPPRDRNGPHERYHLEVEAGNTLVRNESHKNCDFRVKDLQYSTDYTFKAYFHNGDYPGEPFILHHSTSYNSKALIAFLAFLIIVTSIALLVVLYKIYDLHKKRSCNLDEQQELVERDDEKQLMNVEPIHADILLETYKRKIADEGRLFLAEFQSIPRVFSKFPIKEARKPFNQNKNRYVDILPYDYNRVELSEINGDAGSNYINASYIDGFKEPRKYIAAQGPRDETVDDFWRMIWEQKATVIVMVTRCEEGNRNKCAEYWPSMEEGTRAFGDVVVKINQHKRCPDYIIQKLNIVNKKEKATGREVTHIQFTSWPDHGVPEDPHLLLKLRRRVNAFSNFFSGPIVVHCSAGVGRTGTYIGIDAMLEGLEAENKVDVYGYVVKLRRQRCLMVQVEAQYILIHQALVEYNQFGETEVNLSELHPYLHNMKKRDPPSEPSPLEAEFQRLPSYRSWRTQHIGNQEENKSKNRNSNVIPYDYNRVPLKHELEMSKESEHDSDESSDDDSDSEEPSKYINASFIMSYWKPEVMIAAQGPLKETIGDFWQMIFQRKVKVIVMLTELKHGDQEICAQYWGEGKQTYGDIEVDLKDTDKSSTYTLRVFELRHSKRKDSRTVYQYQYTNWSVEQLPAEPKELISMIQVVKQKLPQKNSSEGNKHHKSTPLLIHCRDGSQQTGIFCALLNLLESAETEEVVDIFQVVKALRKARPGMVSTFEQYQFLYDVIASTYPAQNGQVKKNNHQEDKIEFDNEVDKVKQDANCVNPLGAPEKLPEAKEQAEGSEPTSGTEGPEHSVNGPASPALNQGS
Briefly: flow cytometry, human whole blood; NK [1].

Test [4] deals with T1, human CD45RC. Briefly: flow cytometry, human whole blood; NKT [2].
In test [5] the target is T1, human CD45RC. Briefly: flow cytometry, human whole blood; mDC [3].
For test [6], the target named is T1, human CD45RC. The test is described as follows: flow cytometry, human whole blood; pDC [3].
For test [7], the target named is T1, human CD45RC. The test is described as follows: flow cytometry, human whole blood; ILC1 [2].
The target in test [8] is T1, human CD45RC. The test is described as follows: flow cytometry, human whole blood; ILC2 [2].
For test [9], the target named is T1, human CD45RC. Briefly: flow cytometry, human whole blood; ILC3 [2].
Test [10] has as its target T1, human CD45RC. The test is described as follows: flow cytometry, human whole blood; MAIT [2].
For test [11], the target named is T1, human CD45RC. The test is described as follows: flow cytometry, human whole blood; iNKT [2].
Test [12] addresses T1, human CD45RC. The test is described as follows: flow cytometry, human whole blood; CD4+ T [1].
The target in test [13] is T1, human CD45RC. The test is described as follows: flow cytometry, human whole blood; CD8+ T [1].
The target of test [14] is T1, human CD45RC. The test is described as follows: flow cytometry, human whole blood; B cells [1].
The target in test [15] is T1, human CD45RC. The test is described as follows: flow cytometry, human whole blood; T cells [1].
Test [16] deals with T1, human CD45RC. The test is described as follows: flow cytometry, human whole blood; Basophils [3].
Test [17] concerns the target T1, human CD45RC. Briefly: flow cytometry, human whole blood; CD3+ TCRab [1].
Test [18] deals with T1, human CD45RC. The test is described as follows: flow cytometry, human whole blood; CD3+ TCRgd [1].
For test [19], the target named is T1, human CD45RC. The test is described as follows: flow cytometry, human whole blood; Eosinophils [3].
Test [20] addresses T1, human CD45RC. The test is described as follows: flow cytometry, human whole blood; Neutrophils [3].
Test [21] addresses T1, human CD45RC. The test is described as follows: flow cytometry, human whole blood; Monocytes CD14+ [2].
Test [22] deals with T1, human CD45RC. The test is described as follows: flow cytometry, human whole blood; Monocytes CD14intCD16+ [3].
For test [23], the target named is T1, human CD45RC. Briefly: flow cytometry, human whole blood; CD4+ Treg (CD25+CD127-) [1].
The target of test [24] is T1, human CD45RC. Briefly: flow cytometry, human whole blood; Monocytes CD14highCD16- [2].
The target of test [25] is macaque CD45RC (cynomolgus macaque). The test is described as follows: flow cytometry, cynomolgus macaque PBMC, CD3- cells; 10 µg/ml (p-1486).
For test [26] the target is unchanged. The test is described as follows: flow cytometry, cynomolgus macaque PBMC, CD3+ cells (p-1488); 10 µg/ml (p-1486).
Test [27] has as its target T1, human CD45RC. Briefly: SPR (BIAcore 3000 / T200), ABIS-45RC immobilised on CM5 chip, solubilised membranes of CD45RC-high PBMC or CD45RC-transfected CHO cells as analyte, 25 C, single cycle kinetics. The source says: Briefly, 1×10⁷ CD45RC^high PBMCs or CHO cells expressing CD45RC after plasmid transfection were solubilized using the Mem-PER membrane isolation kit (Thermo-fisher).

As to Isotype (antibody), the values for the % of cells CD45RC+ in test [1] and in test [2] were 2.7% and 4.37%, respectively.
On to MT2 (antibody), for which the % of cells CD45RC high with human CD45RC [3] stood at 28.6%; with human CD45RC [4], 34.4%; in the test with human CD45RC [5], 0%; in the test with human CD45RC [6], 1.84%; with human CD45RC [7], 9.3%; with human CD45RC [8], 45%. Besides, the % of cells CD45RC high with human CD45RC [9] came to 50%; with human CD45RC [10] it was 5.89%; in the test with human CD45RC [11], 24.1%; with human CD45RC [12] it was 3.64%; with human CD45RC [13], 38.8%; with human CD45RC [14], 79.9%. Also, the % of cells CD45RC high came to 7.43% in the test with human CD45RC [15]; 0% with human CD45RC [16]; 8.34% with human CD45RC [17]; 1.93% in the test with human CD45RC [18]; 0.47% with human CD45RC [19]; 0.014% in the test with human CD45RC [20]. In addition, the % of cells CD45RC high is 0.43% in the test with human CD45RC [21], 6.45% with human CD45RC [22], 3.52% with human CD45RC [23] and 0.091% in the test with human CD45RC [24]. For the same molecule, the % of cells CD45RC low in the test with human CD45RC [3] was 70.4%; with human CD45RC [4], 54.2%; with human CD45RC [5], 14.3%; with human CD45RC [6], 97.9%; with human CD45RC [7], 27.5%; with human CD45RC [8] it was 49.5%. Further, the % of cells CD45RC low with human CD45RC [9] turned out to be 50%; with human CD45RC [10] it was 71%; with human CD45RC [11] it was 61.6%; in the test with human CD45RC [12] it was 47.2%; with human CD45RC [13], 39.7%; with human CD45RC [14] it was 20.1%. For the same molecule, the % of cells CD45RC low in the test with human CD45RC [15] was 49.7%; with human CD45RC [16], 7.3%; with human CD45RC [17], 46.2%; with human CD45RC [18] it was 90.6%; with human CD45RC [19], 90.5%; with human CD45RC [20], 19.3%. Also, the % of cells CD45RC low stood at 43.9% with human CD45RC [21], 87.7% with human CD45RC [22], 19.8% with human CD45RC [23] and 38.3% with human CD45RC [24]. For the same molecule, the % of cells CD45RC negative with human CD45RC [3] was determined as 1%; with human CD45RC [4], 11.4%; with human CD45RC [5] it was 85.7%; in the test with human CD45RC [6], 0.23%; with human CD45RC [7] it was 63.2%; with human CD45RC [8] it was 5.5%. Moreover, the % of cells CD45RC negative with human CD45RC [9] stood at 0%; with human CD45RC [10] it was 23.2%; with human CD45RC [11] it was 14.3%; in the test with human CD45RC [12] it was 49.2%; with human CD45RC [13], 21.5%; with human CD45RC [14], 0%. The % of cells CD45RC negative turned out to be 42.9% in the test with human CD45RC [15]; 92.7% with human CD45RC [16]; 45.5% with human CD45RC [17]; 7.46% in the test with human CD45RC [18]; 9.08% with human CD45RC [19]; 80.7% in the test with human CD45RC [20]. Further, the % of cells CD45RC negative with human CD45RC [21] came to 55.6%; in the test with human CD45RC [22] it was 5.87%; with human CD45RC [23], 76.7%; with human CD45RC [24], 61.6%.

B1: ABIS-45RC (antibody, mouse IgG1, kappa, V domains shown)
VH: QVQLQQSGAELVRPGTSVKMSCKAAGYTFTNYYIGWVKQRPGHGLEWIGDIFPGGDYANSNEKFKGKATLTADTSSSTAYMQLSSLTSEDSAIYYCVRRNFDYWGQGTTLTVSS
VL: QIVLTQSPTIMSASPGEKVTITCSASSSVSYMHWFQQKTGTSPRLWIYNTSNLPSGVPARFSGSGSGTSYSLTISRMEAEDAATYYCQQRSSYPLTFGAGTKLELKR
notes: the variable domains are the same; also called murine ABIS-45RC; murine anti-hCD45RC antibody of the invention
For B1, in test [25], the % of cells CD45RC+ came out at 74.1%. In [26], the % of cells CD45RC+ turned out to be 26.1%. In the test with human CD45RC [27], the Kd amounted to 50 nM, the koff amounted to 0.0144 s⁻¹ and the kon was determined as 291000 M⁻¹ s⁻¹.

B2: Anti-45RC Variant A (antibody, human IgG1, kappa, V domains shown)
VH: QVQLVQSGAEVKKPGASVKVSCKASGYTFTNYYIGWVRQAPGQGLEWIGDIFPGGDYANSNEKFKGRVTLTADTSISTAYMELSRLRSDDTVVYYCVRRNFDYWGQGTLVTVSS
VL: DIQLTQSPSFLSASVGDRVTITCSASSSVSYMHWFQQKPGKAPKLWIYNTSNLPSGVPSRFSGSGSGTEYTLTISSLQPEDFATYYCQQRSSYPLTFGGGTKVEIKR
As to B2, the % of cells CD45RC+ in [25] came out at 75.6%; in [26] it was 17.2%.

B3: Anti-45RC Variant A3 (antibody, human IgG1, kappa, V domains shown)
VH: B2 VH with D56G, A58T, S60Y, N61A, K65Q
VL: B2 VL with S24R, F35Y
Turning to B3, the % of cells CD45RC+ in test [25] is 82.6%; in test [26] it was 15.2%.

B4: Anti-45RC Variant A1 (antibody, human IgG1, kappa, V domains shown)
VH: B2 VH with A58T, S60Y, N61A, K65Q
VL: B2 VL with S24R, F35Y
As for B4, the % of cells CD45RC+ in [25] was determined as 76.3%; in test [26] it was 15.6%.

One may read the Kd as the concentration at which binding is half-saturated. Lower therefore signals higher affinity. For orientation: koff means a measure of how fast the partners let go of each other. The kon is the rate constant with which the complex forms. A higher kon goes with faster complex formation.
